From patent US5827498A, “Tumor affinity peptide, and radioactive diagnostic agent and radioactive therapeutic agent containing the peptide” (Nihon Medi-Physics Co., Ltd., priority 1994, dated 1998)
Read-outs that look alike come from different tables or passages of the source. No end group written: not given here.

How the values were obtained:
[1] = set-up: species or system SD rats (Sprague-Dawley Rats); conditions: rat, in vivo
Experimental: To SD rats (Sprague-Dawley Rats) weighing 140 to 200 grams and previously Ravonal anesthetized, technetium-99m-peptide-1 obtained in Example 6, technetium-99m-peptide-2, 3 and 4 obtained in Example 7, technetium-99m-peptide-5, 6, 7, 8, 9, 10, 11, 12, 13 and KYCAREPPTRTNAYWGQG (hereinafter referred to as "peptide-14") prepared according to the method of Example 6 were each administered to the tail vein in an amount of 35 MBq to 45 MBq. The animals were sacrificed 5, 30, 60 and 180 minutes later to determine distribution ratio of radioactivity in various organs using a single channel counter.

[2] = Time course of technetium-99m labeling yield in vitro (HPLC); format: physicochemical
Experimental: To 40.3 μmol/300 μl of glucoheptanate was added 130 nmol/50 μl of stannous chloride and 1049 MBq of sodium pertechnetate, and the entire volume was adjusted to 1.3 ml. After stirring, the mixture was left to stand still for 30 minutes at room temperature and then the labeling purity of glucoheptanate was confirmed to be 95% or more by cellulose acetate membrane electrophoresis. 242 MBq/300 μl of the mixture was added to 0.46 μmol/300 μl of peptide-1 obtained in Example 1 and the reaction was completed in a hot water bath at 100° C. in 20 minutes to yield the target technetium-99m-peptide-1. After cooling at room temperature, the peptide was confirmed to have a labeling purity of 98.3% according to HPLC method.
After technetium-99m-peptide-1 obtained in Example 6 and technetium-99m-peptides-2 to 4 obtained by the same method as in Example 6 were left to stand still for 1, 3 and 6 hours, the time course changes of technetium-99m labeling yield of the peptides were studied using liquid chromatography (HPLC method) under the following conditions:
Column: Millipore puresil 5 μm C18 (4.6×150 mm),
Eluent A: 0.1% TFA/purified water,
Eluent B: 0.1% TFA/acetonitrile,
Concentration gradient: 0 min. (10% B)→5 mins. (10% B)→35 mins. (50% B)→45 mins. (75% B).

[3] = In vitro stability of technetium-99m labeled peptide in human plasma (HPLC); format: in vitro ADME
Experimental: Technetium-99m-peptide-8 obtained in Example 8 was mixed with 10-fold equivalent of human plasma (ROCKLAND Inc.: STERILE PLASMA containing EDTA) and the mixture was incubated at 37° C. A mixture of technetium-99m-peptide-1 obtained in Example 6 was also prepared by the same method.
The mixture was filtered through a 0.2 μm membrane filter 5 minutes and 30 minutes after the mixing, and was subjected to HPLC analysis. In vitro stability was evaluated by comparing the pattern of HPLC with that of peptide-1 before the mixing procedure. The HPLC profiles of technetium-99m-peptide-1 and of each of the above technetium-99m-labeled peptides mixed with plasma at 4° C. at the 5 and 30 minute points and at 37° C. at the 5 and 30 minute points are shown in FIGS. 7, 8, 9, 10, 11, 12, 13, 14 and 15.

[4] = biological target: T1, epitope VTSAPDTRPAPGST of mucin core protein conjugated to bovine serum albumin (BSA) (Homo sapiens, UniProt P15941); format: binding
T1 construct: made in house; host or cells: chemical peptide synthesis (no expression host)
Experimental: The epitope VTSAPDTRPAPGST of mucin core protein, to which the conventional peptide YCAREPPTRTNAYWG is known to bind, was synthesized and further conjugated to bovine serum albumin (BSA). The conjugated peptide was used as an artificial antigen to measure antigen affinity of peptide-14 by radioimmunoassay (RIA). The assay will be described below in detail.
Each 200 μl of 10 μg/ml solution of the artificial antigen in 50 mmol sodium carbonate buffer of a pH of 9.5 was added to each of 2 ml tubes containing polystyrene beads of 6.35 mm in diameter. The tubes were stood still overnight at 4° C. Then, the inside of the tubes was washed three times by a washing agent of 0.05%(v/v) Tween 20 PBS (phosphate buffer saline, pH 7.5). In order to block the portions to which the artificial antigen is not bound of the surface of the polystyrene beads, 200 μl of 1% BSA-PBS was each added to each of the tubes. The tubes were stood still for 3 hours at room temperature. Then, the inside of the tubes was washed three times.
Peptide-14 was diluted to 500, 100, 50, 10, 5, 1, 0.5, 0.1 and 0.05 μg/ml with PBS containing 1% PRIONEX™ (an albumin substitute of Pentapharm, Ltd.). […] Each of the diluted peptide-containing solutions was added to each of the […] tubes, followed by adding thereto 100 μl of the previously-prepared antibody solution. The tubes were stood still for 3 hours. Then, the inside of the tubes was washed three times with the washing agent.
A sheep antimouse antibody labelled with iodine-125 (3.7 MBq/ml, made by Amersham Co.) was diluted 100-fold with 1% BSA-PBS. To each of the tubes, 200 μl of the diluted antimouse antibody was added. Then, the tubes were stood still for 2 hours at 37° C. Then, the inside of the tubes was washed three times with the washing agent, and radioactivity was measured by use of an auto well gammma ray counter.

For KYCAD-REPPTD-RTFAYWGQG [peptide-9], the “radioactivity in liver and small intestines compared with peptides having corresponding L-Arg” value [1] was “reduced percentages of radioactivity in liver and small intestines”.

With KYCAREPPTRTFAYWGQG [peptide-1] the technetium-99m labeling yield ([2]; 1 hr. standing after labeling) was at least 98%, the technetium-99m labeling yield ([2]; 1 hr. standing after labeling, listed as Peptide-1) was 98.3% and the technetium-99m labeling yield ([2]; 3 hr. standing after labeling) was 97.2%. The technetium-99m labeling yield ([2]; 6 hr. standing after labeling) was at least 96%, the technetium-99m labeling yield ([2]; 6 hr. standing after labeling, listed as Peptide-1) was 96.6% and the “% of unidentified radioactive substance in plasma” value ([3]; 5 mins. later/4° C.) was 5.3%. For the same substance, the “% of unidentified radioactive substance in plasma” value ([3]; 5 mins. later/37° C.) was 12.4%, the “% of unidentified radioactive substance in plasma” value ([3]; 30 mins. later/4° C.) was 40.1% and the “% of unidentified radioactive substance in plasma” value ([3]; 30 mins. later/37° C.) was 59.4%.

In the case of YCAREPPTRTFAYWGQG [peptide-4], the technetium-99m labeling yield ([2]; 1 hr. standing after labeling) was 81.5%, the technetium-99m labeling yield ([2]; 3 hr. standing after labeling) was “below 95%” and the technetium-99m labeling yield ([2]; 3 hr. standing after labeling, listed as Peptide-4) was 81.2%. The technetium-99m labeling yield ([2]; 6 hr. standing after labeling) was 79.9%.

In the case of KYCAD-REPPTD-RTFAYD-WGQG [peptide-10], the “radioactivity in liver and small intestines compared with peptides having corresponding L-Arg” value [1] was “reduced percentages of radioactivity in liver and small intestines”.

With “YCAREPPTRTFAYWG [peptide-3, peptide without N-terminal Lys, used for comparison]” the technetium-99m labeling yield ([2]; 1 hr. standing after labeling) was 96.3%, the technetium-99m labeling yield ([2]; 3 hr. standing after labeling) was “below 95%” and the technetium-99m labeling yield ([2]; 3 hr. standing after labeling, listed as Peptide-3) was 88.9%. It also gave a technetium-99m labeling yield ([2]; 6 hr. standing after labeling) of 84.4%.

In the case of KYCAD-REPPTRTFAYWGQG [peptide-7], the “radioactivity in liver and small intestines compared with peptides having corresponding L-Arg” value [1] was “reduced percentages of radioactivity in liver and small intestines”.

For “YCAREPPTRTNAYWG [peptide-2, conventional peptide without N-terminal Lys, used for comparison]”, the technetium-99m labeling yield ([2]; 1 hr. standing after labeling) was 85.5%, the technetium-99m labeling yield ([2]; 3 hr. standing after labeling) was “below 95%” and the technetium-99m labeling yield ([2]; 3 hr. standing after labeling, listed as Peptide-2) was 71.8%. For the same substance, the technetium-99m labeling yield ([2]; 6 hr. standing after labeling) was 78.5%.

“KYCAREPPTRTNAYWGQG [peptide-14, KYCAREPPTRTNAYWGQG]” gave a binding percentage ([4]; 5.0e-8 g/ml) of 29.517%, a binding percentage ([4]; 1.0e-7 g/ml) of 27.890% and a binding percentage ([4]; 5.0e-7 g/ml) of 42.941%. The binding percentage ([4]; 1.0e-6 g/ml) was 38.129%, the binding percentage ([4]; 5.0e-6 g/ml) was 50.293% and the binding percentage ([4]; 1.0e-5 g/ml) was 60.056%. It also gave a binding percentage ([4]; 5.0e-5 g/ml) of 60.869%, a binding percentage ([4]; 1.0e-4 g/ml) of 58.585% and a binding percentage ([4]; 5.0e-4 g/ml) of 63.669%.
